The values that follow are results of earlier work, collected in PMC10148413.

This data set concerns the target histone H3K4 methylated peptide (Homo sapiens) (UniProt P68431).

For the substance ASH1L PHD (from UniProt Q9NR48), the dissociation constant Kd was 150 µM.
